Consider one molecule from patent publication CN111138530A (INST MILITARY MEDICINE ACADEMY MILITARY SCIENCES PLA, dated 2020).

One test concerns the target GP 95-295 (Ebola virus (EBOV), UniProt Q05320 95-295). As to the kind of experiment: ELISA on coated truncated GP. A general note: An ELISA detects its analyte on a solid surface through an enzyme-linked reagent.
The target of another test is sGP (Ebola virus (EBOV), UniProt Q05320 33-295). Kind of test: ELISA on coated truncated GP.
In another test the target is GP1 (Ebola virus (EBOV), UniProt Q05320 33-501). As to the kind of experiment: ELISA on coated truncated GP.
The next test deals with T1, SUDV GP (SUDV, UniProt Q7T9D9 33-650).
T1 sequence: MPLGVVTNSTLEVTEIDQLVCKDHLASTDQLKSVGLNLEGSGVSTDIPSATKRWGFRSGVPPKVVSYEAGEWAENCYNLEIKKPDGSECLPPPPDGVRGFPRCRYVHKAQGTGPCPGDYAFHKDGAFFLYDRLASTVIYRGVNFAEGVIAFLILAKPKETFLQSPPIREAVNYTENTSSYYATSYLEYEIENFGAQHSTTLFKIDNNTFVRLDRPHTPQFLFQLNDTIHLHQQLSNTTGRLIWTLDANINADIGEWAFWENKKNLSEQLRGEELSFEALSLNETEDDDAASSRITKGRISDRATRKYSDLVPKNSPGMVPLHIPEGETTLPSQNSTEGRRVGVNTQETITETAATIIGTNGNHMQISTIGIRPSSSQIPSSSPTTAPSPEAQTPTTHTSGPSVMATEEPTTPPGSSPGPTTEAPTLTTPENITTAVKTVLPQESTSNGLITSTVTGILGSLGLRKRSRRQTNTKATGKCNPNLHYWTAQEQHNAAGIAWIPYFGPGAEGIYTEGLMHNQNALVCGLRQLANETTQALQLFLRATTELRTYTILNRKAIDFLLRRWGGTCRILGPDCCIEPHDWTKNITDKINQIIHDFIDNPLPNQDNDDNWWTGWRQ
As to the kind of experiment: ELISA, coated GP 1 μg/mL, antibody titrated from 10 μg/mL.

In the next test the target is T2, EBOV GP (Ebola virus (EBOV), UniProt Q05320 33-650).
T2 sequence: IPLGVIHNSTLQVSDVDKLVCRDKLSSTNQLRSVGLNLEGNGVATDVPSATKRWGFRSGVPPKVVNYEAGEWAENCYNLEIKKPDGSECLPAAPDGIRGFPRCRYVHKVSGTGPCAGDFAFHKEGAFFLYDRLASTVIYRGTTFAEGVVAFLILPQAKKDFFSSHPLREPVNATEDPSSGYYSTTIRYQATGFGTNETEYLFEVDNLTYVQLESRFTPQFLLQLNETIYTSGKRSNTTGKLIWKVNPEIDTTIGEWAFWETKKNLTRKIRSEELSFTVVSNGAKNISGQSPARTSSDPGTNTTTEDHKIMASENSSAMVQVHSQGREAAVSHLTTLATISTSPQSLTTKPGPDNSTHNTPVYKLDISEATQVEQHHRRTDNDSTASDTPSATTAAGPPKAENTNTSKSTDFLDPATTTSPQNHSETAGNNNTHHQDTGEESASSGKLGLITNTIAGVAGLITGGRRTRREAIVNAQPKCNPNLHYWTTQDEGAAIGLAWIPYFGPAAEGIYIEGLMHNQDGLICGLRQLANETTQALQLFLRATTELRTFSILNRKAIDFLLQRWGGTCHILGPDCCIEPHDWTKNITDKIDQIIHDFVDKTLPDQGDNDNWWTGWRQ
The description is as above.

For a further test, the target named is T3, RESTV GP (RESTV, UniProt Q66799 34-651).
T3 sequence: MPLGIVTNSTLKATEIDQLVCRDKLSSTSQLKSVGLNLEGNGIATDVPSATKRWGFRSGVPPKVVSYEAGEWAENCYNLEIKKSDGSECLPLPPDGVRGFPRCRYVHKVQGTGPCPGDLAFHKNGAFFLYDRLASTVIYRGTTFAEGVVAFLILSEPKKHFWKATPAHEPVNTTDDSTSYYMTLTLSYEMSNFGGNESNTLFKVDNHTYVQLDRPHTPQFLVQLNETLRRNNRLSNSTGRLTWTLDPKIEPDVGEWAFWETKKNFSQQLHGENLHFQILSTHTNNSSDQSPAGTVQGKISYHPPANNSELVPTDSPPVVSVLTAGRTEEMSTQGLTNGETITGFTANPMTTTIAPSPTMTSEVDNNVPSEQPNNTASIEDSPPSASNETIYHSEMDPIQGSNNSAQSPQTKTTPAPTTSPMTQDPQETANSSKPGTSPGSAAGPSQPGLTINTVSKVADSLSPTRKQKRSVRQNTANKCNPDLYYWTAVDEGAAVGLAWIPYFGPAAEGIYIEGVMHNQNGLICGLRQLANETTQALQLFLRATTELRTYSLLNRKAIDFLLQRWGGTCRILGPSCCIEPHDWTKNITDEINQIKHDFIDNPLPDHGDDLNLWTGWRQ
The description is as above.

In general, EC50 refers to the concentration giving half of the maximal effect.

B1: 抗埃博拉病毒糖蛋白GP1亚基的单克隆抗体5E9 (antibody, V domains shown)
VH: EVQLLESGGGLVKPGGSLRLSCVASGFTFTNAWMNWVRQAPGKGLEWVGRIKSKTDSGTTDYAAPVNGRFTISRDDSKNTLYLQMNSLKTEDTAVYYCTTRYQYNGMDVWGQGTTVTVSS
VL: QPVLTQPPSVSGAPGQRVTISCTGRSSNIGAGYDVHWYQHLPGTAPKLLIYANTNRPSGVPDRFSGSKSGTSASLAITGLQPGDEADYYCQSYDSRLSDHVVFGGGTKLTVLG
For the molecule B1, the EC50 with GP 95-295 was 11.8 ng/mL; in the test with sGP, 5 ng/mL; with GP1, 4.1 ng/mL; with SUDV GP it was over 1000 ng/mL; in the test with EBOV GP, 6 ng/mL; in the test with RESTV GP it was 149 ng/mL.
